Laboratory results as given in paper PMC9015148 (2022).

How the values were obtained:
[1] = molecular target: RSV_FixBB (UniProt P0AFA2); assay: SPR
[2] = molecular target: Surf_03 (UniProt P0AFA2); assay: SPR

B1: D25 Fab (Fab, V domains shown)
VH: QVQLVQSGAEVKKPGSSVMVSCQASGGPLRNYIINWLRQAPGQGPEWMGGIIPVLGTVHYAPKFQGRVTITADESTDTAYIHLISLRSEDTAMYYCATETALVVSTTYLPHYFDNWGQGTLVTVSS
VL: DIQMTQSPSSLSAAVGDRVTITCQASQDIVNYLNWYQQKPGKAPKLLIYVASNLETGVPSRFSGSGSGTDFSLTISSLQPEDVATYYCQQYDNLPLTFGGGTKVEIK
Q: B1 was tested. Which Kd [1] did it give?
A: The Kd was 99 nM.

Q: And the Kd [2]?
A: Its Kd is 360 nM.
